# Test results: paper PMC3855908 (Traffic (Copenhagen, Denmark), 2013)
# B1: End3 (recombinantly purified, unpublished data) (natural protein, yeast, UniProt P39013 1-349, looked up)
# chain: MPKLEQFEIKKYWQIFSGLKPIENKVNHDQVLPILYNSKLDSSVLNKIWFLADIDDDDNLDFEEFVICMRLIFDMVNKNISSVPDELPDWLIPGSKVNLIKERKKRKQIENADLPPKKEIKVDWYMSPDDLNQYEKIYNSCAKLTDGTITFNELSTKLSTKFFNISKTDLNKVWSLINPQNLPSIDRDPTFYFIHCLRQRNDLGAEIPASLPNSLAEVCNKKQLSYDLRSSQPPTKRKEEANEVDNLRDNGQNSSSDSSGSNVLSNEDSIKQKYASLTDDQVANMREQLEGLLNYKKSEKTQGGSKLSKRINIRSITDDLDNIEQQVEVLENYLNNKRHELQALQAEIN
# B2: Gal4 AD-End3^176–349 (domain or fragment, yeast, UniProt P39013 176-349, looked up)
# chain: LINPQNLPSIDRDPTFYFIHCLRQRNDLGAEIPASLPNSLAEVCNKKQLSYDLRSSQPPTKRKEEANEVDNLRDNGQNSSSDSSGSNVLSNEDSIKQKYASLTDDQVANMREQLEGLLNYKKSEKTQGGSKLSKRINIRSITDDLDNIEQQVEVLENYLNNKRHELQALQAEIN
# Key:
# [1] = molecular target: T1, Pan1 (recombinantly purified, unpublished data) (yeast, UniProt P32521 1-1480)
# T1 sequence (looked up): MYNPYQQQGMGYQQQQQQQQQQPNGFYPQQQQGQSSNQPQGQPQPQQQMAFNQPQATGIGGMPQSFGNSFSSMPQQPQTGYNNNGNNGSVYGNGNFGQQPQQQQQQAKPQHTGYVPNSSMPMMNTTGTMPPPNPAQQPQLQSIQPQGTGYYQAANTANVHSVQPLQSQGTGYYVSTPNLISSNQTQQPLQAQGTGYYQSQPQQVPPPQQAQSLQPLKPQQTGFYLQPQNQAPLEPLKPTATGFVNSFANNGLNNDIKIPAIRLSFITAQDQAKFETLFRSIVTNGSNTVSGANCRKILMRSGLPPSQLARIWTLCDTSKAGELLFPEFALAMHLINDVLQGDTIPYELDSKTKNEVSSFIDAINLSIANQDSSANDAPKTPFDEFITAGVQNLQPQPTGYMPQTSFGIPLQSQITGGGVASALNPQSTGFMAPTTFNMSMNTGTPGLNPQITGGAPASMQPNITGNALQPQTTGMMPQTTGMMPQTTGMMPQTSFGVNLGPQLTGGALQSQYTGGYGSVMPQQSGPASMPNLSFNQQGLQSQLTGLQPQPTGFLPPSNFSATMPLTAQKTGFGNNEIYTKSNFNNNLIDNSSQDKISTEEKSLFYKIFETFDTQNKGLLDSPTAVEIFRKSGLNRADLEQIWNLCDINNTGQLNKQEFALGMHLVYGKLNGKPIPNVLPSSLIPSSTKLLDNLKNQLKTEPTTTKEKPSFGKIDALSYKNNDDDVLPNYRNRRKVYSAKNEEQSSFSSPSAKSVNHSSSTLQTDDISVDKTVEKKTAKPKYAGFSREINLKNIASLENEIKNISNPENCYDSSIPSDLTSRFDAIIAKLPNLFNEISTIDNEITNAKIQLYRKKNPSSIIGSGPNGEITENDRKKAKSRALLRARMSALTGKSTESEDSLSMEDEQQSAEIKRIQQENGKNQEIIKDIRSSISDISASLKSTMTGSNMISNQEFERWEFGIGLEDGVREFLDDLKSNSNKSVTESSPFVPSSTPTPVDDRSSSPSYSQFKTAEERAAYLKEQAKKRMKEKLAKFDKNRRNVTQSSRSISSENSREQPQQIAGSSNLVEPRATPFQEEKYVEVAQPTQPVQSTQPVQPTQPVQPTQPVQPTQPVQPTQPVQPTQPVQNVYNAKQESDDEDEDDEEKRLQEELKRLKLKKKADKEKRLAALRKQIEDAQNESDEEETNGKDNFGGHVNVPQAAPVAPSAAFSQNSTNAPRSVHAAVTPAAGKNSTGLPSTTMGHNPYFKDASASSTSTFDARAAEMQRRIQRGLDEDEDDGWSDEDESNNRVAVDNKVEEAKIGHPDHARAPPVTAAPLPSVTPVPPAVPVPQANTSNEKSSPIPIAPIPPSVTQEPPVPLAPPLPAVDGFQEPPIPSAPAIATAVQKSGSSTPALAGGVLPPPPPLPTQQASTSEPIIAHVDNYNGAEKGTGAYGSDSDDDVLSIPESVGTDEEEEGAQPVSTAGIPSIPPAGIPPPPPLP
# Gal4 DBD-Pan1^792–948 = molecular target: T2, Gal4 DBD-Pan1^792–948 (yeast, UniProt P32521 792-948); assay: two-hybrid
# T2 sequence (looked up): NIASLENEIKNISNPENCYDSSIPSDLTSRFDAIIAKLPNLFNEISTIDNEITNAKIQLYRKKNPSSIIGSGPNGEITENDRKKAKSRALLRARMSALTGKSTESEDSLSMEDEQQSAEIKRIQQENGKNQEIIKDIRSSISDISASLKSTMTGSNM
# Gal4 DBD-Pan1^687–846 = molecular target: T3, Gal4 DBD-Pan1^687–846 (yeast, UniProt P32521 687-846); assay: two-hybrid
# T3 sequence (looked up): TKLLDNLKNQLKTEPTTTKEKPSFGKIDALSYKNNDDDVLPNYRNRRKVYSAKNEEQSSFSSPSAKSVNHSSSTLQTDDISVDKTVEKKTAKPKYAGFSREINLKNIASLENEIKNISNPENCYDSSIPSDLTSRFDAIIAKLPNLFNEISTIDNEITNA
# Gal4 DBD-Pan1^687–1190 = molecular target: T4, Gal4 DBD-Pan1^687–1190 (yeast, UniProt P32521 687-1190); assay: two-hybrid
# T4 sequence (looked up): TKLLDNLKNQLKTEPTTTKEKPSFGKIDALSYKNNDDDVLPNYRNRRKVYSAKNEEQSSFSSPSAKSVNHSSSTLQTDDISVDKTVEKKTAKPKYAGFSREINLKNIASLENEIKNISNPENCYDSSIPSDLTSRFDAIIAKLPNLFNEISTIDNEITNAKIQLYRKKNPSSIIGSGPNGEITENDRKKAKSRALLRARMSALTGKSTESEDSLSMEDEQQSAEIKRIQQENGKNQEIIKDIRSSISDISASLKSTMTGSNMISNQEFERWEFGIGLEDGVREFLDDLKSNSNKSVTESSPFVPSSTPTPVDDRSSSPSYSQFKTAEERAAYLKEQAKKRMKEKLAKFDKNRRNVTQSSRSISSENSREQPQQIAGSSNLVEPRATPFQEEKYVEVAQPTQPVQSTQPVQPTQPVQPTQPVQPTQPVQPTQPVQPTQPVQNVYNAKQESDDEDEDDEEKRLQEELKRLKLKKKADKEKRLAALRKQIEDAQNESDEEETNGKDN
Binder,stoichiometry N [1],Miller Units (Gal4 DBD-Pan1^792–948) [Miller Units],Miller Units (Gal4 DBD-Pan1^687–846) [Miller Units],Miller Units (Gal4 DBD-Pan1^687–1190) [Miller Units]
B1,1,,,
B2,,99.7,80.1,412
